The target in the assay is CCR6-NES-eLOV-TEVcs-FLAG-Gal4-V5 receiver construct, expressed in HEK293T cells.

On to “CCL20 sender construct (CCL20-18 aa linker-3xHA-pre-mGRASP), expressed in HEK293T cells (ligand)”, for which the TRACC UAS-mCherry reporter by confocal imaging, HEK293T in trans: percent of receiver cells in contact with sender cells with reporter expression above background was determined as 80.2%.

The values above are taken from publication PMC8937215.
